Data as given in CN112442122A (SHANGHAI NOVAMAB BIOPHARMACEUTICALS CO LTD, dated 2021).

Assays:
[1] = molecular target: T1, 人PD-1 (on CHOZn/PD-1 stably transfected cells) (human, UniProt Q15116 25-288); assay: flow cytometry; competition with 50ug/ml hPD-L1-Biotin on CHOZn/PD-1 cells
T1 construct: whole, on cells; also called hPD-1; GS-J2/PD-1

[2] = molecular target: T1, 人PD-1 (on CHOZn/PD-1 stably transfected …); assay: flow cytometry; binding to CHOZn/PD-1 cells, anti Human IgG-FITC detection

T1 sequence (Q15116 25-288): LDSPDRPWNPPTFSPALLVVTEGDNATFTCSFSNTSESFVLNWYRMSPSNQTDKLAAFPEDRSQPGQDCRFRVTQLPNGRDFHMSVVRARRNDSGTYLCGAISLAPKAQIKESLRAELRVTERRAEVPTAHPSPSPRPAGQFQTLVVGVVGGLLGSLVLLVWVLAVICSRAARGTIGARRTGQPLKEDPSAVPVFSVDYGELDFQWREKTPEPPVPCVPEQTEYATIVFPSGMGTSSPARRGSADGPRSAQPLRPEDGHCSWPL

B1: PD-1Nb-Fc融合蛋白 (Fc fusion)
chain: QVQLQESGGGSVQAGGSLRLSCAASGYTYSSYYMGWFRQAPGKEREGVAAIDRDGRTSYADSVKGRFTISRDNAKNTLYLQMNSLKPEDTAMYTCAAVLVLSGYYSDYGLVPPPFEYNYWGQGTQVTVSS
notes: also called PD-1纳米抗体; not shown: IgG4 Fc supplied by the pFUSE-IgG4 vector (Invivogen)
[1]
  IC50: 1.3 µg/mL
[2]
  EC50: 1.06 µg/mL
